Results on one substance are retold here after article PMC5384453, “A multi-functional PEGylated gold(III) compound: potent anti-cancer properties and self-assembly into nanostructures for drug co-delivery” (Chemical Science, 2016).

The subject of one data set is A2780cis xenografts. The data set can be described thus: In vivo inhibition of tumor growth in nude mice bearing A2780cis xenograft. The protocol: To further investigate the ability of 1 to treat drug-resistant tumors that should be of great interest in clinical application, in vivo antitumor experiments on nude mice bearing cisplatin-resistant A2780cis xenografts with 1 were conducted. […]
every 2 days for 24 days. The control group received equal volume of PBS only.
During the treatment period, the tumor volume and body weight of the nude mice were measured per two days. The tumor volume was calculated by the equation:
Volume (mm3) = l×w2/2, where l and w were the length and width of the tumor. At the end of the treatment, the nude mice were sacrificed and the tumor weight was […]
H&E staining and immunohistochemical (IHC) analysis of mice tissues. […] The expression of p53, Ki67, VEGFR2 and TUNEL was determined by IHC methods as reported previously. […]
animal study. […] During the treatment period, the tumor volume and body weight of the nude mice were measured […]
once every 2–3 days. The tumor volume was calculated by the equation: Volume (mm3) = l×w2/2, where l and w were the length and width of the tumor. At the end of the treatment, the nude mice were sacrificed and the tumor weight was measured. […]
of apoptosis of HCT116 cells was investigated by CellEvent Caspase-3/7 Green ReadyProbes Reagent (30 µL), similar to the procedure of the experiments on gold(III) […]

The conditions of data set [1]: mouse. The protocol: The anti-tumor experiments using mice were approved by the animal ethics committees of Jinan University and The University of Hong Kong. […]
point of tumor growth inhibition study, the mice treated with complex 1, 3 and Au1a, respectively, were sacrificed and tissues including liver, spleen, lung, kidney and heart were harvested. The tissues were digested with 10% HCl in concentrated HNO3 (0.1 g of tissue/1 mL). The solution mixture was heated at 60 °C for 15 h, and then diluted 50 times by ultra-pure water for ICP-MS analysis.
Determination of in vivo biodistribution of complex 1, 3 and Au1a by ICP-MS.
Nude mice bearing HCT116 xenografts were treated with 1 (13 mg/kg), or equal molar amount of Au1a (2 mg/kg) or 3 (2 mg/kg) through intravenous injection. After 24 h of the injection, the mice were sacrificed and tissues from tumor, liver, spleen, lung, kidney and heart were harvested. The tissues were digested with 10% HCl in concentrated HNO3 (0.1 g of tissue/1 mL). The solution mixture was heated at 60 °C for 15 h, and then diluted 50 times by ultra-pure water for ICP-MS analysis.
Analysis of tumor tissue from mice treated with complexes 1 by UPLC-QTOF-MS. At the end point of tumor growth inhibition study, the mice treated with solvent control or complex 1 were sacrificed and the tumor tissues were harvested, followed by homogenization in 50% ice-cold acetonitrile (0.1 g/300 µL). […]

As to “[Au(TPP–COO–PEG5000–OCH3)]Cl [Compound 1]”, in the data set with A2780cis xenografts (4 mg kg^–1, intravenous injections every 2–3 days for 13 days, n = 5), the “reduction of tumor volume” value is listed as “Over 52%”. In the data set on A2780cis xenografts (A2780cis xenograft nude mice, 4 mg kg^–1 i.v., 13 days), the “mouse death / body weight” value is reported as “no mouse death or significant loss in body weight”. Besides, the “hydrolysis in vivo (species found in tumor tissues)” value in data set [1] was “[Au(TPP–COOH)]^+ was found in the UPLC-QTOF-MS of tumor tissues”.
